In publication PMC9640706, “Structure of the IscB–ωRNA ribonucleoprotein complex, the likely ancestor of CRISPR-Cas9”:

Target: T1, OgeuIscB ΔHNH (human gut metagenome (OgeuIscB), UniProt PDB:7XHT_4 1-198+=GGSG+296-496, internal_change)
T1 sequence: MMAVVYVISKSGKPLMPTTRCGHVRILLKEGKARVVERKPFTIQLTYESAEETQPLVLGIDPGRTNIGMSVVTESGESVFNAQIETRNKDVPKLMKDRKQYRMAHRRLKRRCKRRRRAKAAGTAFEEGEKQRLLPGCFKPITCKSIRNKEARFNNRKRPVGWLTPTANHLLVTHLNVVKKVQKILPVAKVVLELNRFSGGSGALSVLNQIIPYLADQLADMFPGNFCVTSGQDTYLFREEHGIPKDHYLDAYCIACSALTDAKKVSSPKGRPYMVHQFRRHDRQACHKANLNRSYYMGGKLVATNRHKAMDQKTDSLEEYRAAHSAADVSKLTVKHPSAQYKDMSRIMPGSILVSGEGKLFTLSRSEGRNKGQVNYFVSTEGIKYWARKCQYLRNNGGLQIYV
Test: cryo-EM (2.6 Å); Mg2+ bound in RuvC site; Purification: 20 mM Tris-HCl pH 8.0, NaCl gradient 0.075-2 M (heparin), 10% glycerol, 5 mM MgCl2, 2 mM DTT; cryo-EM sample buffer not in the material
Settings: protein: recombinant; strand 1 ωRNA, strand 2 TS, strand 3 NTS; NTS pairs with TS nt 1-14; ωRNA guide nt 1-27 complementary to TS nt 15-41 (17 bp resolved); TS 3' tail 8 nt

B1: ωRNA (233 nt) + partially double-stranded target DNA (TS 49 nt, NTS 14 nt) (mixed)
RNA: GGAAUUGUGAGCGGAUAACAAUUCCCCGGCUCUUCCAACUUUAUGGUUGCGACCGUAGGUUGAAAGAGCACAGGCUGAGACAUUCGUAAGGCCGAAAGACCGGACGCACCCUGGGAUUUCCCCAGUCCCCGGAACUGCAUAGCGGAUGCCAGUUGAUGGAGCAAUCUAUCAGAUAAGCCAGGGGGAACAAUCACCUCUCUGUAUCAGAGAGAGUUUUACAAAAGGAGGAACGG
DNA 1: GAATGGTTTTCTTCGGGGAATTGTTATCCGCTCACAATTCCTTAGAAAA
DNA 2: GAAGAAAACCATTC
B1: binds.
